In article PMC10244618:
“And” between values parts separate entries of the source, which are not always exact repeats. Identical values can stand only once.

B1: NF2 (merlin) isoform 7, human, full length (507 aa, lacks exons 2-3 = isoform-1 residues 39-121; exon-16 C-terminus), P35240-4 (parent)
chain: MAGAIASRMSFSSLKRKQPKTFTVRIVTMDAEMEFNCEVKKQILDEKIYCPPEASVLLASYAVQAKYGDYDPSVHKRGFLAQEELLPKRVINLYQMTPEMWEERITAWYAEHRGRARDEAEMEYLKIAQDLEMYGVNYFAIRNKKGTELLLGVDALGLHIYDPENRLTPKISFPWNEIRNISYSDKEFTIKPLDKKIDVFKFNSSKLRVNKLILQLCIGNHDLFMRRRKADSLEVQQMKAQAREEKARKQMERQRLAREKQMREEAERTRDELERRLLQMKEEATMANEALMRSEETADLLAEKAQITEEEAKLLAQKAAEAEQEMQRIKATAIRTEEEKRLMEQKVLEAEVLALKMAEESERRAKEADQLKQDLQEAREAERRAKQKLLEIATKPTYPPMNPIPAPLPPDIPSFNLIGDSLSFDFKDTDMKRLSMEIEKEKVEYMEKSKHLQEQLNELKTEIEALKLKERETALDILHNENSDRGGSSKHNTIKKPQAQGRRPICI

Variants of: B1
Assay: reverse yeast two-hybrid deep mutational scan (rY2H-seq): NF2 isoform 7 mutant library as bait mated with wild-type prey strains; selection on medium lacking adenine for non-interacting pairs; NextSeq paired-end sequencing; enrichment vs …
Settings: with EMILIN1 (elastin microfibril interfacer 1), Q9Y6C2; yeast diploids after mating (RBait_S3 x RPrey_S3), 30 °C, selection for reporter genes on NB agar; human tyrosine kinase ABL2 co-expressed as the active kinase …; HIGHER = WEAKER BINDING (the opposite of display enrichments): higher = stronger loss of interaction: reverse Y2H selects yeast in which bait and prey do NOT interact (growth without adenine), so a …; hits-only table; scale: rY2H score; numbering: uniprot, sequence starts at 1

Variant | enrichment
I404K | 1.59
D476V | 5.43
M446V | 2.65
N480A | 1.73
T461I | 1.49
L389E | 2.12
E444A | 10.3 and 7.31
L478A | 1.45
A393K | 1.55
P405L | 5.05
N402L | 1.47
N402Q | 2.62
D428K | 4.1
S488R | 1.65
F426V | 2.88
F426A | 1.63
E391L | 2
L390C | 5.21 and 8.08
S489E | 7.56
A406Q | 2.56
A406K | 2.13

Same assay, conditions: with KDM1A (lysine-specific histone demethylase 1A; the table's label AOF2 is a gene synonym of KDM1A), O60341; yeast diploids after mating (RBait_S3 x RPrey_S3), 30 °C, selection for reporter genes on NB agar; human tyrosine kinase ABL2 co-expressed as the active kinase …; HIGHER = WEAKER BINDING (the opposite of display enrichments): higher = stronger loss of interaction: reverse Y2H selects yeast in which bait and prey do NOT interact (growth without adenine), so a …; hits-only table; scale: rY2H score; numbering: uniprot, sequence starts at 1

Variant | enrichment
A65V | 1.9
Q345K | 1.61
I418A | 1.5
M446I | 1.99
P504R | 1.85
L389E | 1.87
E444K | 1.5
E148A | 1.62 and 1.74
R364A | 4.28 and 3.15
A155C | 1.93
I412H | 6.45
A316E | 2.69
D198G | 2.28
R253Q | 1.48
E245Y | 1.47
N143M | 2.18
M225K | 43
T308I | 2.84
A365K | 2
R166G | 1.84
N402E | 1.73
D428N | 1.87
N137R | 2.21

Variant | enrichment
M401E | 1.62
M401K | 1.99 and 1.77
L434R | 1.37
R328L | 2.21
Q500K | 1.42
I329A | 1.81
I127E | 11.8
Q64K | 2.38
Q64P | 6.87
E391R | 2.32
Q306H | 1.79
L355P | 1.79
H75S | 3.22
H159A | 1.39
H159P | 3.93 and 3.02
H159E | 1.44
M133E | 21.9
K330L | 2.59
L390E | 2
S489L | 2.43
K356A | 2
K356E | 1.91
A358L | 6.77

Same assay, conditions: with KDM1A (lysine-specific histone demethylase 1A; the table's label AOF2 is a gene synonym of KDM1A), O60341; yeast diploids after mating (RBait_S3 x RPrey_S3), 30 °C, selection for reporter genes on NB agar; human ABL2 co-expressed as the kinase-dead K35M mutant …; HIGHER = WEAKER BINDING (the opposite of display enrichments): higher = stronger loss of interaction: reverse Y2H selects yeast in which bait and prey do NOT interact (growth without adenine), so a …; hits-only table; scale: rY2H score; numbering: uniprot, sequence starts at 1

Variant | enrichment
E34A | 1.5
E351K | 1.66 and 2.35
Q345K | 2.79
L158I | 2.37
D476E | 2.39
A302T | 1.57
P504R | 2
A247E | 7.37
R227E | 14.7
L389K | 2.15
L389S | 1.45
L167A | 1.67
L167E | 2.5
E295K | 1.91
F173V | 2.3
K191Y | 1.65
S423E | 9.11
N457T | 2.31
N457S | 3.38
D271K | 5.07
A393L | 1.9

Variant | enrichment
P405S | 6.05
I392E | 3.78
T336L | 2.98
S414E | 1.73
S414L | 3.17
N492E | 1.69
C506S | 1.49
A365L | 2.1
R166G | 1.77
R166E | 1.81
N402L | 1.53
W175C | 2.59
D428K | 2.24
I171D | 5.35
S12L | 5.88
L434R | 1.73
R328P | 1.53
L408K | 1.88
Q500L | 19.6
E344V | 1.58
M357D | 7.23

Variant | enrichment
S488R | 1.65
Q498L | 1.65
P192S | 1.69
N482T | 2.3
N482L | 2.71
Q64L | 2.29
F426A | 3.99
D374T | 7.88 and 2.96
K15E | 3.69
K15L | 1.66
H75S | 2.92
H159P | 1.84
H159E | 3.49
R384E | 2.89
L390C | 6.37
K356L | 3.88
A406Q | 1.87
L315P | 2.33
L315S | 4.11
A358L | 7.18

Same assay, conditions: with NF2 C-terminal domain (wild type; homomeric NF2-NF2 interaction), P35240; yeast diploids after mating (RBait_S3 x RPrey_S3), 30 °C, selection for reporter genes on NB agar; human ABL2 co-expressed as the kinase-dead K35M mutant …; HIGHER = WEAKER BINDING (the opposite of display enrichments): higher = stronger loss of interaction: reverse Y2H selects yeast in which bait and prey do NOT interact (growth without adenine), so a …; hits-only table; partner unresolved; scale: rY2H score; numbering: uniprot, sequence starts at 1

Variant | enrichment
E351K | 2.95 and 2.99
L158G | 1.55
P19E | 3.9
T297L | 3.13
A302K | 1.89
A266L | 3.08
A247E | 6.62
L389K | 4.56 and 2.51
Y70H | 1.43
L167E | 4.14 and 3.2
L167K | 1.57
E295K | 2.66
K191Y | 1.46
E245K | 3.75
E245A | 1.58
P405L | 7.16
N143M | 1.65 and 1.37
N288A | 1.84
T336D | 3.64
A365L | 2.32
N137Q | 1.42
E310L | 1.51
L434R | 1.58

Variant | enrichment
F139E | 20.1
M357D | 2.94
M357A | 1.97 and 1.82
S488R | 1.58
L156K | 2.02
N482T | 2.43
A287E | 3.57 and 6.74
Q64M | 5.81
D374A | 1.98
D374T | 3.23
A298E | 2.55 and 1.66
H75S | 2.58
H159A | 2.04
K260A | 2.49
M133E | 2.45
L390C | 4.75
L315R | 1.62
Y61K | 1.84
Y61A | 6.2
A358K | 3.8
A358E | 2.37
D118K | 4.21

Same assay, conditions: with PIK3R3 (phosphatidylinositol 3-kinase regulatory subunit gamma), Q92569; yeast diploids after mating (RBait_S3 x RPrey_S3), 30 °C, selection for reporter genes on NB agar; human tyrosine kinase ABL2 co-expressed as the active kinase …; HIGHER = WEAKER BINDING (the opposite of display enrichments): higher = stronger loss of interaction: reverse Y2H selects yeast in which bait and prey do NOT interact (growth without adenine), so a …; hits-only table; scale: rY2H score; numbering: uniprot, sequence starts at 1

Variant | enrichment
L158I | 1.48 and 2.46
T297L | 1.67
A302T | 3.87
R227E | 36.3
L389K | 2.43
R364A | 2.87
A155C | 1.8 and 1.98
A393K | 3.14
A316E | 2.22 and 3.1
R253Q | 1.57
S414L | 3.79
A365K | 2.58
R166G | 1.44
R166E | 1.52
N402E | 1.42
I171D | 3.5 and 7.01
N137R | 2.63
M401E | 2.14
M401K | 2.17
I329A | 1.64
A287E | 2.8
Q64L | 6.71
H159E | 6.11
L390C | 10.7
K356L | 7.08
A358L | 4.62
